The values below come from PMC10191836.

Test [1] concerns the target fibrillin microfibrils purified from bovine ciliary zonules (bovine (endogenous in ciliary zonule)). In words: cryo-EM structure; native bovine ciliary zonule microfibrils in 20 mM Tris-HCl, 150 mM NaCl, 2 mM CaCl2 pH 7.4; single-particle reconstruction of bead (9.7 Å) and arm (18.3 Å) regions, C2 symmetry imposed.
The target is the same in test [2]. Description: STEM mass mapping; full-length LTBP-1 incubated with bovine microfibrils at a 2:1 molar ratio for 4 h at 4 °C; mass per microfibril repeat with and without LTBP-1.

Consider “fibrillin microfibrils purified from bovine ciliary zonules (complex)”, for which the fibrillin monomers per microfibril repeat (monomers per repeat) in test [1] was 8. As for “full-length human LTBP-1S (short splice form of latent TGFβ-binding protein-1) (natural protein)”, in test [2], the stoichiometry N (LTBP-1 molecules per microfibril repeat) amounted to 2.
